Results reported in patent US20220267436A1 (NANJING GENSCRIPT BIOTECH, published 2022).

T1: human LAG-3 (human, UniProt P18627 23-525)
T1 construct: whole, on cells; also called LAG-3 antigen
T1 sequence (looked up): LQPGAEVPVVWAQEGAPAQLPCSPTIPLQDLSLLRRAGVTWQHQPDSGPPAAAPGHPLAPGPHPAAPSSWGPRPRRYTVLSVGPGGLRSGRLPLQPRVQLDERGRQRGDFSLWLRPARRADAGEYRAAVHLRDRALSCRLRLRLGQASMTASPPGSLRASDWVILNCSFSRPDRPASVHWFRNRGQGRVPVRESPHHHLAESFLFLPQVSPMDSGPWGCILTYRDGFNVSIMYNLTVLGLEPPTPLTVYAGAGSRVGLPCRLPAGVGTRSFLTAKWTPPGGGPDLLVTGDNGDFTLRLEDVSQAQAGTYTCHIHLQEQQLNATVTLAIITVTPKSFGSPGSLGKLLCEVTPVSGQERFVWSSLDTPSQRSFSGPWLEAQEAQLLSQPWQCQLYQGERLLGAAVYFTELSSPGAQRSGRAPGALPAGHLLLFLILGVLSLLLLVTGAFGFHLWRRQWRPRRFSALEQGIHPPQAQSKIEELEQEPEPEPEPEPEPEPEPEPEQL


How the values were obtained:
human LAG-3 = biological target: T1, human LAG-3; test: flow cytometry on CHO-K1 cells expressing human LAG-3
Experimental: (§1) For the constructed series of bispecific antibodies, the affinity of these samples with antigens was measured by using a flow cytometer. […] Then, an antibody-antigen binding curve was generated based on the geometric mean, raw data of four parameters was plotted by using the […] Prism V6.02 software, and a best fitted value program was compiled to analyze EC₅₀.

human CD47 = biological target: T2, human CD47 (human, UniProt Q08722 19-323); test: flow cytometry on CHO-K1 cells expressing human CD47
T2 construct: whole, on cells; also called CD47 antigen; integrin associated protein
Experimental: as §1

T2 sequence (Q08722 19-323): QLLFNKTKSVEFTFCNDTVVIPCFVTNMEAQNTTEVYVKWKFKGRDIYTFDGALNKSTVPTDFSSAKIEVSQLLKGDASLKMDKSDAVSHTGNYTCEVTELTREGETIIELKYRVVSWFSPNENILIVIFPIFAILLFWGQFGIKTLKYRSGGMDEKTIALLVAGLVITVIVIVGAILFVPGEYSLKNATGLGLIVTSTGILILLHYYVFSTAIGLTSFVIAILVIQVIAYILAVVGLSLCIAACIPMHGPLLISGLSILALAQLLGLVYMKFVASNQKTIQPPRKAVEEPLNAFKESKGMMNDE

Row | binding result (human LAG-3) | binding result (human CD47) | Binder
1 | binds | – | bispecific antibody LAG3-E-LC (bispecific antibody, human IgG4 S228P, kappa, Two identical fused chains and two identical natural chains; also called L1 + H0) heavy: not shown light: EIVLTQSPATLSLSPGERATLSCRASENVGTYISWYQQKPGQAPRLLIYGASNRYTGIPARFSGSGSGTDFTLTISSLEPEDFAVYYCGESYGHLYTFGGGTKVEIKRTVAAPSVFIFPPSDEQLKSGTASVVCLLNNFYPREAKVQWKVDNALQSGNSQESVTEQDSKDSTYSLSSTLTLSKADYEKHKVYACEVTHQGLSSPVTKSFNRGECEPKSSDKTHTSPPSPEVQLVESGGGLVQPGGSLRLSCAASGYTVSSYCMGWFRQAPGKGREGVSAIDSDGSVSYADSVKGRFTISKDNSKNTLYLQMNSLRAEDTAVYFCAADLCWVDQDQGEYNTWGQGTLVTVSS
2 | binds | binds | bispecific antibody LAG3-G9-LC (bispecific antibody, human IgG4 S228P, kappa, Two identical fused chains and two identical natural chains; also called L3 + H0) heavy: not shown light: EIVLTQSPATLSLSPGERATLSCRASENVGTYISWYQQKPGQAPRLLIYGASNRYTGIPARFSGSGSGTDFTLTISSLEPEDFAVYYCGESYGHLYTFGGGTKVEIKRTVAAPSVFIFPPSDEQLKSGTASVVCLLNNFYPREAKVQWKVDNALQSGNSQESVTEQDSKDSTYSLSSTLTLSKADYEKHKVYACEVTHQGLSSPVTKSFNRGECGGGGSGGGSEVQLVESGGGLVQPGGSLRLSCAASGYTVSSYCMGWFRQAPGKGREGVSAIDSDGSVSYADSVKGRFTISKDNSKNTLYLQMNSLRAEDTAVYFCAADLCWVDQDQGEYNTWGQGTLVTVSS
3 | binds | – | bispecific antibody LAG3-E-HC (bispecific antibody, human IgG4 S228P, kappa, Two identical fused chains and two identical natural chains; also called H1 + L0) heavy: not shown light: EIVLTQSPATLSLSPGERATLSCRASENVGTYISWYQQKPGQAPRLLIYGASNRYTGIPARFSGSGSGTDFTLTISSLEPEDFAVYYCGESYGHLYTFGGGTKVEIKRTVAAPSVFIFPPSDEQLKSGTASVVCLLNNFYPREAKVQWKVDNALQSGNSQESVTEQDSKDSTYSLSSTLTLSKADYEKHKVYACEVTHQGLSSPVTKSFNRGEC
4 | binds | – | bispecific antibody LAG3-G15-HN (bispecific antibody, human IgG4 S228P, kappa, Two identical fused chains and two identical natural chains; also called H6 + L0) heavy: not shown light: EIVLTQSPATLSLSPGERATLSCRASENVGTYISWYQQKPGQAPRLLIYGASNRYTGIPARFSGSGSGTDFTLTISSLEPEDFAVYYCGESYGHLYTFGGGTKVEIKRTVAAPSVFIFPPSDEQLKSGTASVVCLLNNFYPREAKVQWKVDNALQSGNSQESVTEQDSKDSTYSLSSTLTLSKADYEKHKVYACEVTHQGLSSPVTKSFNRGEC
5 | binds | – | bispecific antibody LAG3-G9-HN (bispecific antibody, human IgG4 S228P, kappa, Two identical fused chains and two identical natural chains; also called H4 + L0) heavy: not shown light: EIVLTQSPATLSLSPGERATLSCRASENVGTYISWYQQKPGQAPRLLIYGASNRYTGIPARFSGSGSGTDFTLTISSLEPEDFAVYYCGESYGHLYTFGGGTKVEIKRTVAAPSVFIFPPSDEQLKSGTASVVCLLNNFYPREAKVQWKVDNALQSGNSQESVTEQDSKDSTYSLSSTLTLSKADYEKHKVYACEVTHQGLSSPVTKSFNRGEC
6 | binds | – | bispecific antibody LAG3-G15-HC (bispecific antibody, human IgG4 S228P, kappa, Two identical fused chains and two identical natural chains; also called H5 + L0) heavy: not shown light: EIVLTQSPATLSLSPGERATLSCRASENVGTYISWYQQKPGQAPRLLIYGASNRYTGIPARFSGSGSGTDFTLTISSLEPEDFAVYYCGESYGHLYTFGGGTKVEIKRTVAAPSVFIFPPSDEQLKSGTASVVCLLNNFYPREAKVQWKVDNALQSGNSQESVTEQDSKDSTYSLSSTLTLSKADYEKHKVYACEVTHQGLSSPVTKSFNRGEC
7 | binds | – | bispecific antibody LAG3-E-HN (bispecific antibody, human IgG4 S228P, kappa, Two identical fused chains and two identical natural chains; also called H2 + L0) heavy: not shown light: EIVLTQSPATLSLSPGERATLSCRASENVGTYISWYQQKPGQAPRLLIYGASNRYTGIPARFSGSGSGTDFTLTISSLEPEDFAVYYCGESYGHLYTFGGGTKVEIKRTVAAPSVFIFPPSDEQLKSGTASVVCLLNNFYPREAKVQWKVDNALQSGNSQESVTEQDSKDSTYSLSSTLTLSKADYEKHKVYACEVTHQGLSSPVTKSFNRGEC
8 | binds | – | bispecific antibody LAG3-G9-HC (bispecific antibody, human IgG4 S228P, kappa, Two identical fused chains and two identical natural chains; also called LAGS-G9-HC; H3 + L0) heavy: not shown light: EIVLTQSPATLSLSPGERATLSCRASENVGTYISWYQQKPGQAPRLLIYGASNRYTGIPARFSGSGSGTDFTLTISSLEPEDFAVYYCGESYGHLYTFGGGTKVEIKRTVAAPSVFIFPPSDEQLKSGTASVVCLLNNFYPREAKVQWKVDNALQSGNSQESVTEQDSKDSTYSLSSTLTLSKADYEKHKVYACEVTHQGLSSPVTKSFNRGEC
9 | – | binds | anti-CD47 monoclonal antibody (mAb) (antibody, human IgG4 S228P, kappa, V domains shown, Full-length antibody composed of heavy chain H0 and light chain L0; also called anti-CD47 mAb; anti-CD47 antibody control) VH: EVQLVQSGAEVKKPGSSVKVSCKASGYSFTHHWIHWVRQAPGQGLEWMGMIDASDSETRLSQKFKDRVTITADKSTSTAYMELSSLRSEDTAVYYCARLGRYYFDYWGQGTTVTVSS VL: EIVLTQSPATLSLSPGERATLSCRASENVGTYISWYQQKPGQAPRLLIYGASNRYTGIPARFSGSGSGTDFTLTISSLEPEDFAVYYCGESYGHLYTFGGGTKVEIKR
10 | binds | binds | bispecific antibody LAG3-G15-LC (bispecific antibody, human IgG4 S228P, kappa, Two identical fused chains and two identical natural chains; also called L5 + H0) heavy: not shown light: EIVLTQSPATLSLSPGERATLSCRASENVGTYISWYQQKPGQAPRLLIYGASNRYTGIPARFSGSGSGTDFTLTISSLEPEDFAVYYCGESYGHLYTFGGGTKVEIKRTVAAPSVFIFPPSDEQLKSGTASVVCLLNNFYPREAKVQWKVDNALQSGNSQESVTEQDSKDSTYSLSSTLTLSKADYEKHKVYACEVTHQGLSSPVTKSFNRGECGGGGSGGGGSGGGGSEVQLVESGGGLVQPGGSLRLSCAASGYTVSSYCMGWFRQAPGKGREGVSAIDSDGSVSYADSVKGRFTISKDNSKNTLYLQMNSLRAEDTAVYFCAADLCWVDQDQGEYNTWGQGTLVTVSS
11 | binds | – | bispecific antibody LAG3-E-LN (bispecific antibody, human IgG4 S228P, kappa, Two identical fused chains and two identical natural chains; also called L2 + H0) heavy: not shown light: EVQLVESGGGLVQPGGSLRLSCAASGYTVSSYCMGWFRQAPGKGREGVSAIDSDGSVSYADSVKGRFTISKDNSKNTLYLQMNSLRAEDTAVYFCAADLCWVDQDQGEYNTWGQGTLVTVSSEPKSSDKTHTSPPSPEIVLTQSPATLSLSPGERATLSCRASENVGTYISWYQQKPGQAPRLLIYGASNRYTGIPARFSGSGSGTDFTLTISSLEPEDFAVYYCGESYGHLYTFGGGTKVEIKRTVAAPSVFIFPPSDEQLKSGTASVVCLLNNFYPREAKVQWKVDNALQSGNSQESVTEQDSKDSTYSLSSTLTLSKADYEKHKVYACEVTHQGLSSPVTKSFNRGEC
12 | binds | – | bispecific antibody LAG3-G15-LN (bispecific antibody, human IgG4 S228P, kappa, Two identical fused chains and two identical natural chains; also called L6 + H0) heavy: not shown light: EVQLVESGGGLVQPGGSLRLSCAASGYTVSSYCMGWFRQAPGKGREGVSAIDSDGSVSYADSVKGRFTISKDNSKNTLYLQMNSLRAEDTAVYFCAADLCWVDQDQGEYNTWGQGTLVTVSSGGGGSGGGGSGGGGSEIVLTQSPATLSLSPGERATLSCRASENVGTYISWYQQKPGQAPRLLIYGASNRYTGIPARFSGSGSGTDFTLTISSLEPEDFAVYYCGESYGHLYTFGGGTKVEIKRTVAAPSVFIFPPSDEQLKSGTASVVCLLNNFYPREAKVQWKVDNALQSGNSQESVTEQDSKDSTYSLSSTLTLSKADYEKHKVYACEVTHQGLSSPVTKSFNRGEC
13 | binds | – | bispecific antibody LAG3-G9-LN (bispecific antibody, human IgG4 S228P, kappa, Two identical fused chains and two identical natural chains; also called L4 + H0) heavy: not shown light: EVQLVESGGGLVQPGGSLRLSCAASGYTVSSYCMGWFRQAPGKGREGVSAIDSDGSVSYADSVKGRFTISKDNSKNTLYLQMNSLRAEDTAVYFCAADLCWVDQDQGEYNTWGQGTLVTVSSGGGGSGGGSEIVLTQSPATLSLSPGERATLSCRASENVGTYISWYQQKPGQAPRLLIYGASNRYTGIPARFSGSGSGTDFTLTISSLEPEDFAVYYCGESYGHLYTFGGGTKVEIKRTVAAPSVFIFPPSDEQLKSGTASVVCLLNNFYPREAKVQWKVDNALQSGNSQESVTEQDSKDSTYSLSSTLTLSKADYEKHKVYACEVTHQGLSSPVTKSFNRGEC
